IC50 and Kd data for 4 sequences are collected here from the Immune Epitope Database (IEDB).

Broadly, the IC50 is the concentration that gives 50% inhibition. A high value points to weaker potency. In general, Kd refers to the constant that tells how readily two partners part at equilibrium. A higher Kd goes with a looser complex.

Test [1] addresses HLA-B*51:01. In words: IEDB peptide-MHC binding, purified MHC/competitive/fluorescence; ≥ and ≤ were set here for values at or beyond the usual limits of such assays. The note with it: source organism: Homo sapiens.
Test [2] concerns the target HLA-A*11:01. The test is described as above. As to conditions: source organism: Homo sapiens.
Test [3] concerns the target HLA-A*03:01. The test is described as above. As to conditions: source organism: Homo sapiens.
In a further test the target is HLA-A*24:02. Described as above. As to conditions: source organism: Homo sapiens.
The target in another test is HLA-B*14:02. Described as above. As to conditions: source organism: Homo sapiens.
The target in test [4] is HLA-A*01:01. Described as above. The note with it: source organism: Homo sapiens.
Test [5] concerns the target HLA-A*02:01. The description is as above. As to conditions: source organism: Homo sapiens.
Test [6] concerns the target HLA-B*07:02. Described as above. The note with it: source organism: Homo sapiens.
The target in test [7] is HLA-B*08:01. The test is described as above. The note with it: source organism: Homo sapiens.
The target of a further test is HLA-A*25:01. The description is as above. The note with it: source organism: Homo sapiens.
A further test has as its target HLA-B*37:01. The description is as above. The note with it: source organism: Homo sapiens.
The target of another test is HLA-B*44:03. The test is described as above. As to conditions: source organism: Homo sapiens.
The target in a further test is HLA-B*40:02. The test is described as above. The note with it: source organism: Homo sapiens.
A further test concerns the target HLA-B*35:01. The description is as above. As to conditions: source organism: Homo sapiens.
For the next test, the target named is HLA-B*53:01. The description is as above. The note with it: source organism: Homo sapiens.
A further test has as its target HLA-A*29:02. The test is described as above. The note with it: source organism: Homo sapiens.
The target in test [8] is HLA-B*18:01. The test is described as above. As to conditions: source organism: Homo sapiens.
The target of test [9] is HLA-A*31:01. Described as above. As to conditions: source organism: Homo sapiens.
For a further test, the target named is HLA-A*68:02. The test is described as above. As to conditions: source organism: Homo sapiens.
In test [10] the target is HLA-B*58:01. The description is as above. As to conditions: source organism: Homo sapiens.
Test [11] has as its target HLA-B*08:01. In words: IEDB peptide-MHC binding, purified MHC/competitive/fluorescence; filed as Kd, often an IC50 or EC50 that approximates it; ≥ and ≤ were set here for values at or beyond the usual limits of such assays.
A further test deals with HLA-A*30:01. The test is described as above. The note with it: source organism: Mycobacterium tuberculosis variant bovis BCG str. Pasteur 1173P2.
Test [12] concerns the target HLA-B*51:01. In words: IEDB peptide-MHC binding, purified MHC/direct/fluorescence; filed as Kd, often an IC50 or EC50 that approximates it; ≥ and ≤ were set here for values at or beyond the usual limits of such assays.
Test [13] concerns the target HLA-A*69:01. Described as above. The note with it: source organism: Mycobacterium tuberculosis.
Test [14] has as its target HLA-A*11:01. Described as above.
Test [15] concerns the target HLA-A*03:01. Described as above.
The next test addresses HLA-B*15:01. The test is described as above.
The target in a further test is HLA-B*57:01. The description is as above.
Test [16] has as its target HLA-A*01:01. The description is as above. The note with it: source organism: Mycobacterium tuberculosis.
The target of the next test is HLA-B*38:01. Described as above.
For test [17], the target named is HLA-A*02:01. The test is described as above.
For the next test, the target named is HLA-B*48:01. The test is described as above.
Another test concerns the target HLA-B*15:17. Described as above.
In a further test the target is HLA-A*26:01. Described as above.
Another test addresses HLA-B*27:05. The test is described as above.
The target in the next test is HLA-B*40:01. Described as above.
In the next test the target is HLA-B*46:01. The description is as above.
The target in test [18] is HLA-B*18:01. The test is described as above.
The target of test [19] is HLA-A*31:01. The test is described as above.
Test [20] deals with HLA-B*58:01. The test is described as above.
Test [21] has as its target HLA-A*69:01. In words: IEDB peptide-MHC binding, purified MHC/competitive/fluorescence; filed as Kd, often an IC50 or EC50 that approximates it; ≥ and ≤ were set here for values at or beyond the usual limits of such assays. As to conditions: source organism: Burkholderia mallei ATCC 23344.
Test [22] has as its target HLA-A*01:01. The description is as above. The note with it: source organism: Burkholderia mallei ATCC 23344.
A further test concerns the target HLA-B*39:01. Described as above. The note with it: source organism: Burkholderia mallei ATCC 23344.
The next test concerns the target HLA-B*15:09. In words: IEDB peptide-MHC binding, purified MHC/direct/fluorescence; filed as Kd, often an IC50 or EC50 that approximates it; ≥ and ≤ were set here for values at or beyond the usual limits of such assays. The note with it: source organism: Burkholderia mallei ATCC 23344.
Test [23] has as its target HLA-B*07:02. Described as above. As to conditions: source organism: Burkholderia mallei.
Setting [24] is: source organism: Mycobacterium tuberculosis.
[25] abbreviates: source organism: Mycobacterium tuberculosis str. Haarlem.
The mark [26] stands for this setting: source organism: Burkholderia mallei ATCC 23344.
[27] abbreviates: source organism: Burkholderia mallei.

Turning to GSSDFQVHFLK, the IC50 with HLA-B*51:01 [1] is at least 20 µM; with HLA-A*11:01 [2], 0.0665 µM; in the test with HLA-A*03:01 [3] it was 1.02 µM; in the test with HLA-A*24:02, at least 20 µM; in the test with HLA-B*14:02, at least 20 µM; in the test with HLA-A*01:01 [4], at least 20 µM. Further, the IC50 in the test with HLA-A*02:01 [5], with HLA-B*07:02 [6], in the test with HLA-B*08:01 [7], with HLA-A*25:01, with HLA-B*37:01 and with HLA-B*44:03 was at least 20 µM throughout. Further, the IC50 was 4.59 µM with HLA-B*40:02; at least 20 µM with HLA-B*35:01; at least 20 µM with HLA-B*53:01; 1.46 µM in the test with HLA-A*29:02; at least 20 µM in the test with HLA-B*18:01 [8]; 1.05 µM with HLA-A*31:01 [9]. Moreover, the half-inhibitory concentration (IC50) with HLA-A*68:02 and in the test with HLA-B*58:01 [10] was at least 20 µM each time.

For the sequence KVADVDLAVPV, the IC50 with HLA-B*51:01 [1], with HLA-A*11:01 [2], with HLA-A*03:01 [3], with HLA-A*24:02, with HLA-B*14:02 and in the test with HLA-A*01:01 [4] was at least 20 µM each time. Moreover, the IC50 is 0.0193 µM with HLA-A*02:01 [5]; at least 20 µM with HLA-B*07:02 [6]; at least 20 µM with HLA-B*08:01 [7]; at least 20 µM in the test with HLA-A*25:01; 0.907 µM with HLA-B*37:01; at least 20 µM in the test with HLA-B*44:03. In addition, the IC50 is 0.745 µM in the test with HLA-B*40:02; at least 20 µM with HLA-B*35:01; at least 20 µM in the test with HLA-B*53:01; at least 20 µM with HLA-A*29:02; at least 20 µM with HLA-B*18:01 [8]; at least 20 µM in the test with HLA-A*31:01 [9]. Moreover, the IC50 with HLA-A*68:02 was 0.0243 µM; in the test with HLA-B*58:01 [10] it was at least 20 µM.

RPRLWRSVI: the Kd is 0.324 µM in the test with HLA-B*08:01 [11] (source organism: Mycobacterium tuberculosis variant bovis BCG str. Pasteur 1173P2); at least 20 µM with HLA-A*30:01; 0.964 µM in the test with HLA-B*51:01 [12] (setting [24]); at least 20 µM with HLA-A*69:01 [13]; at least 20 µM with HLA-A*11:01 [14] (setting [24]); at least 20 µM with HLA-A*03:01 [15] (setting [24]). The Kd in the test with HLA-B*15:01 (setting [24]), in the test with HLA-B*57:01 (setting [24]), in the test with HLA-A*01:01 [16], with HLA-B*38:01 (setting [25]), with HLA-A*02:01 [17] (setting [24]) and in the test with HLA-B*48:01 (setting [24]) was at least 20 µM throughout. The Kd in the test with HLA-B*15:17 (setting [24]) was 2.58 µM; with HLA-A*26:01 (setting [25]) it was at least 20 µM; in the test with HLA-B*27:05 (setting [24]), at least 20 µM; with HLA-B*40:01 (setting [24]), at least 20 µM; with HLA-B*46:01 (setting [24]) it was at least 20 µM; with HLA-B*18:01 [18] (setting [24]), at least 20 µM. In addition, the Kd with HLA-A*31:01 [19] (setting [24]) and with HLA-B*58:01 [20] (setting [24]) was at least 20 µM each time.

As for EPFSRRHPL, the Kd in the test with HLA-A*69:01 [21] is 0.209 µM; with HLA-A*01:01 [22], 3.27 µM; with HLA-B*39:01, 0.443 µM; with HLA-B*08:01 [11] (setting [26]), 0.0583 µM; with HLA-B*51:01 [12] (setting [27]), at least 20 µM; with HLA-A*11:01 [14] (setting [27]) it was at least 20 µM. Further, the equilibrium dissociation constant (Kd) with HLA-A*03:01 [15] (setting [27]), with HLA-B*15:01 (setting [27]), with HLA-B*57:01 (setting [27]), with HLA-B*38:01 (setting [26]), with HLA-B*15:09 and in the test with HLA-A*02:01 [17] (setting [27]) was at least 20 µM each time. Moreover, the Kd with HLA-B*48:01 (setting [27]) was at least 20 µM; with HLA-B*07:02 [23] it was 0.01 µM; in the test with HLA-B*15:17 (setting [27]), 0.367 µM; with HLA-A*26:01 (setting [26]), at least 20 µM; with HLA-B*27:05 (setting [27]), at least 20 µM; with HLA-B*40:01 (setting [27]), at least 20 µM. The dissociation constant (Kd) with HLA-B*46:01 (setting [27]), in the test with HLA-B*18:01 [18] (setting [27]), in the test with HLA-A*31:01 [19] (setting [27]) and with HLA-B*58:01 [20] (setting [27]) was at least 20 µM in each case.
